B1: Disabled homolog 2 (Mus musculus), P98078-1 (parent)
chain: MSNEVETSTTNGQPDQQAAPKAPSKKEKKKGSEKTDEYLLARFKGDGVKYKAKLIGIDDVPDARGDKMSQDSMMKLKGMAAAGRSQGQHKQRIWVNISLSGIKIIDEKTGVIEHEHPVNKISFIARDVTDNRAFGYVCGGEGQHQFFAIKTGQQAEPLVVDLKDLFQVIYNVKKKEEDKKKVEEANKAEENGSEALMTLDDQANKLKLGVDQMDLFGDMSTPPDLNSPTESKDILLVDLNSEIDTNQNSLRENPFLTNGVTSCSLPRPKPQASFLPENAFSANLNFFPTPNPDPFRDDPFAQPDQSAPSSFDSLTSPDQKKASLSSSSTPQSKGPLNGDTDYFGQQFDQLSNRTGKPEAQGGPWPYPSSQTQQAVRTQNGVSEREQNGFHIKSSPNPFVGSPPKGLSVPNGVKQDLESSVQSSAHDSIAIIPPPQSTKPGRGRRTAKSSANDLLASDIFASEPPGQMSPTGQPAVPQSNFLDLFKGNAPAPVGPLVGLGTVPVTPPQAGPWTPVVYSPSTTVVPGAIISGQPPSFRQPLVFGTTPAVQVWNQSPSFATPASPPPPTVWCPTTSVAPNAWSSTSPLGNPFQSNNIFPPPTMSTQSSPQPMMSSVLATPPQPPPRNGPLKDIPSDAFTGLDPLGDKEVKEVKEMFKDFQLRQPPLVPSRKGETPPSGTSSAFSSYFNNKVGIPQEHVDHDDFDANQLLNKINEPPKPAPRQGVLLGTKSADNSLENPFSKGFSSSNPSVVSQPASSDPHRSPFGNPFA
partner: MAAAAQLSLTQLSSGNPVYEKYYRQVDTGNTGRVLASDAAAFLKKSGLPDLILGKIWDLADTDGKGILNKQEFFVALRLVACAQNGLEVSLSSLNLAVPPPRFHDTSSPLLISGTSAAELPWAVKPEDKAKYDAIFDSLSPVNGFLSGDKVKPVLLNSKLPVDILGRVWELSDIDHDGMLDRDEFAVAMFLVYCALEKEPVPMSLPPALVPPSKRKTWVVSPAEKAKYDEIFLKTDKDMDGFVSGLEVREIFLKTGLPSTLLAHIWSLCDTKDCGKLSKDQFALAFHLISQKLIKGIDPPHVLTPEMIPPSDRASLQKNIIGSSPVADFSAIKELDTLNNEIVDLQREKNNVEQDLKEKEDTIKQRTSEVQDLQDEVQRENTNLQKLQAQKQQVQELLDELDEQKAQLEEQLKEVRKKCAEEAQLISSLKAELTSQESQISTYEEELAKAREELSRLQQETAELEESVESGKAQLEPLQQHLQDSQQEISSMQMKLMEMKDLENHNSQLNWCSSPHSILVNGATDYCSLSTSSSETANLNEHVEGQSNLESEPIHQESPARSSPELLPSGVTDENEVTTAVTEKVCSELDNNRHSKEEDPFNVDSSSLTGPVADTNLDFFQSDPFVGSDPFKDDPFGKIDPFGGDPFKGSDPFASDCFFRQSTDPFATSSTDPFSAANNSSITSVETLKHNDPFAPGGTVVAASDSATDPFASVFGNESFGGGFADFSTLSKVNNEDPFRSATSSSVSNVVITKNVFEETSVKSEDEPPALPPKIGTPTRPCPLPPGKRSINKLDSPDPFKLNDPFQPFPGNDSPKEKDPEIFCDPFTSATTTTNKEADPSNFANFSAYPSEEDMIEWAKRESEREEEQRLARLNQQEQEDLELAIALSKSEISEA
B2: Disabled homolog 2 (Mus musculus), P98078-1 (parent)
chain: B1 chain

Variants of: B1
Conditions: with eps15_human EPS15, P42566

Row | effect of a mutation on the interaction | Variant
1 | disrupting interaction | F589V;F736V;F765V

Variants of: B2
Conditions: with itsn1_mouse Itsn1, Q9Z0R4
Chain of itsn1_mouse Itsn1, Q9Z0R4 (Q9Z0R4 whole entry): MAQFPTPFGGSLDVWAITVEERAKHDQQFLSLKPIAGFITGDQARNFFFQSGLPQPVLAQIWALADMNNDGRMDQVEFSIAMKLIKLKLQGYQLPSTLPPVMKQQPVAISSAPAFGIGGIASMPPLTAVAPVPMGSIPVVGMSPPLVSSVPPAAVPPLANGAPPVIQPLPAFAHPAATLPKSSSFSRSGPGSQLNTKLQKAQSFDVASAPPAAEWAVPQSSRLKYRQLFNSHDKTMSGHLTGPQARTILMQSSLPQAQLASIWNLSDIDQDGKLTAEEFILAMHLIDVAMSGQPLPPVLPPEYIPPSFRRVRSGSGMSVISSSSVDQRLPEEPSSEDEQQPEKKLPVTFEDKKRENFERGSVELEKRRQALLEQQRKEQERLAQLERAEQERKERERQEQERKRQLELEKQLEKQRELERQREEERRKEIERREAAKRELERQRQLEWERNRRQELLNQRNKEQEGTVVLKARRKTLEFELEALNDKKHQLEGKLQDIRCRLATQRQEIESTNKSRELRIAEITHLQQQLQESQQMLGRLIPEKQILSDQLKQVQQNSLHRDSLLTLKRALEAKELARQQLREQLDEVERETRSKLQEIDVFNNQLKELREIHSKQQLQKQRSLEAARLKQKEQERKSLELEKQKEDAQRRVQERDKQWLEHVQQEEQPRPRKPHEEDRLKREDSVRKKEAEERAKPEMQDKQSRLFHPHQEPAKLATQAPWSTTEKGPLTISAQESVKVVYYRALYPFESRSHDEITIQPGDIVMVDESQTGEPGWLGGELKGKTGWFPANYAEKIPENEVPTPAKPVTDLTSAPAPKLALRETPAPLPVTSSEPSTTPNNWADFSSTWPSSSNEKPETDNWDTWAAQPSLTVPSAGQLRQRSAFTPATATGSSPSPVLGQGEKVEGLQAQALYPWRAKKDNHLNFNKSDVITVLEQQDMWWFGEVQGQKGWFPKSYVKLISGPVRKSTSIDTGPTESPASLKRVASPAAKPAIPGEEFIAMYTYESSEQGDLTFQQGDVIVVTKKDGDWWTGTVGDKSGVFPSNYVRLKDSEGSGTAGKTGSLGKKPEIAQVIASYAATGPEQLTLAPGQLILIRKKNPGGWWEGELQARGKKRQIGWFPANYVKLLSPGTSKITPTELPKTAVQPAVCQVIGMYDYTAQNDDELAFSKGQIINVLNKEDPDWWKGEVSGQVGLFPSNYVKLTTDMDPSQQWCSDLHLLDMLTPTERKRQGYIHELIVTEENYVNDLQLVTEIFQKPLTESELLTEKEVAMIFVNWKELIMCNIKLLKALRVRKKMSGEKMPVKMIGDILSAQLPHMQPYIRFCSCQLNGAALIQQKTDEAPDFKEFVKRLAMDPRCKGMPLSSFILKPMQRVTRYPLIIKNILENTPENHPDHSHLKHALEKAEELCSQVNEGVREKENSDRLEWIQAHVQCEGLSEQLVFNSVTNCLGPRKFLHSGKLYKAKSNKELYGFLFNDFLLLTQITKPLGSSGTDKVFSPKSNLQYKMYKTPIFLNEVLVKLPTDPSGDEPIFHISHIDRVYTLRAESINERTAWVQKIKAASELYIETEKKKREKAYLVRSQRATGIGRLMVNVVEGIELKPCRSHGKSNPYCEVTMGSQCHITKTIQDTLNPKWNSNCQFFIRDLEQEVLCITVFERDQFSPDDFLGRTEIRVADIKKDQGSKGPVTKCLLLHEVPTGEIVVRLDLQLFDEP

Row | effect of a mutation on the interaction | Variant
2 | decreasing interaction | F255V;F398V
3 | disrupting interaction | F255V;F398V;F589V;F736V;F765V
4 | decreasing interaction | F589V;F736V;F765V

Reference: IntAct's records for PubMed 22648170
